Assay results published in patent publication US20260234252A1 (published 2026).
Where “and” joins values, the source holds several entries; their conditions need not be identical. Identical values can stand only once. Like-named read-outs stand apart in the source and are kept apart here.

What was measured:
[1] = target: T1, Vβ17 on human CD8+ T cells (human); assay: FACS
T1 chain: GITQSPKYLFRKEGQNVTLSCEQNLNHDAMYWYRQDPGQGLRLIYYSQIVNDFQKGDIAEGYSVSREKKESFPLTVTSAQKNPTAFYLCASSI

[2] = target: T1, Vβ17 on human CD8+ T cells; assay: FACS

B1: VB13 (Vβ17×Null) bispecific antibody (bispecific antibody)
heavy 1: QVQLQESGPGLVKPSETLSLTCTVSGYSITSGYFWNWIRQPPGKGLEWIGYISYDGSNNYNPSLKSRVTISRDTSKNQFSLKLSSVTAADTAVYYCASPSPGTGYAVDYWGQGTLVTVSSASTKGPSVFPLAPCSRSTSESTAALGCLVKDYFPEPVTVSWNSGALTSGVHTFPAVLQSSGLYSLSSVVTVPSSSLGTKTYTCNVDHKPSNTKVDKRVESKYGPPCPPCPAPEAAGGPSVFLFPPKPKDTLMISRTPEVTCVVVDVSQEDPEVQFNWYVDGVEVHNAKTKPREEQFNSTYRVVSVLTVLHQDWLNGKEYKCKVSNKGLPSSIEKTISKAKGQPREPQVYTLPPSQEEMTKNQVSLSCAVKGFYPSDIAVEWESNGQPENNYKTTPPVLDSDGSFFLVSRLTVDKSRWQEGNVFSCSVMHEALHNRFTQKSLSLSLGK
light 1: DIQMTQSPSSLSASVGDRVTITCRSSQSLVHSNGNTYLHWYQQKPGKAPKFLIYKVSNRFSGVPSRFSGSGSGTDFTLTISSLQPEDFATYYCSQSTHVPFTFGQGTKLEIKRTVAAPSVFIFPPSDEQLKSGTASVVCLLNNFYPREAKVQWKVDNALQSGNSQESVTEQDSKDSTYSLSSTLTLSKADYEKHKVYACEVTHQGLSSPVTKSFNRGEC
heavy 2: not shown
light 2: not shown
EC50 [1]: 12.6 nM
EC50 [2]: 1.4 nM and 1.5 nM

B2: VB11 (anti-Vβ17/anti-CD123) bispecific antibody (bispecific antibody)
heavy 1: QVQLQESGPGLVKPSETLSLTCTVSGYSITSGYFWNWIRQPPGKGLEWIGYISYDGSNNYNPSLKSRVTISRDTSKNQFSLKLSSVTAADTAVYYCASPSPGTGYAVDYWGQGTLVTVSSASTKGPSVFPLAPCSRSTSESTAALGCLVKDYFPEPVTVSWNSGALTSGVHTFPAVLQSSGLYSLSSVVTVPSSSLGTKTYTCNVDHKPSNTKVDKRVESKYGPPCPPCPAPEAAGGPSVFLFPPKPKDTLMISRTPEVTCVVVDVSQEDPEVQFNWYVDGVEVHNAKTKPREEQFNSTYRVVSVLTVLHQDWLNGKEYKCKVSNKGLPSSIEKTISKAKGQPREPQVYTLPPSQEEMTKNQVSLSCAVKGFYPSDIAVEWESNGQPENNYKTTPPVLDSDGSFFLVSRLTVDKSRWQEGNVFSCSVMHEALHNRFTQKSLSLSLGK
light 1: DIQMTQSPSSLSASVGDRVTITCRSSQSLVHSNGNTYLHWYQQKPGKAPKFLIYKVSNRFSGVPSRFSGSGSGTDFTLTISSLQPEDFATYYCSQSTHVPFTFGQGTKLEIKRTVAAPSVFIFPPSDEQLKSGTASVVCLLNNFYPREAKVQWKVDNALQSGNSQESVTEQDSKDSTYSLSSTLTLSKADYEKHKVYACEVTHQGLSSPVTKSFNRGEC
heavy 2: EVQLVQSGAEVKKPGESLKISCKGSGYSFTSYWISWVRQMPGKGLEWMGIIDPSDSDTRYSPSFQGQVTISADKSISTAYLQWSSLKASDTAMYYCARGDGSTDLDYWGQGTLVTVSSASTKGPSVFPLAPCSRSTSESTAALGCLVKDYFPEPVTVSWNSGALTSGVHTFPAVLQSSGLYSLSSVVTVPSSSLGTKTYTCNVDHKPSNTKVDKRVESKYGPPCPPCPAPEAAGGPSVFLFPPKPKDTLMISRTPEVTCVVVDVSQEDPEVQFNWYVDGVEVHNAKTKPREEQFNSTYRVVSVLTVLHQDWLNGKEYKCKVSNKGLPSSIEKTISKAKGQPREPQVYTLPPSQEEMTKNQVSLWCLVKGFYPSDIAVEWESNGQPENNYKTTPPVLDSDGSFFLYSRLTVDKSRWQEGNVFSCSVMHEALHNHYTQKSLSLSLGK
light 2: EIVLTQSPGTLSLSPGERATLSCRASQSVSSSYLAWYQQKPGQAPRLLIYGASSRATGIPDRFSGSGSGTDFTLTISRLEPEDFAVYYCQQDYGFPWTFGQGTKVEIKRTVAAPSVFIFPPSDEQLKSGTASVVCLLNNFYPREAKVQWKVDNALQSGNSQESVTEQDSKDSTYSLSSTLTLSKADYEKHKVYACEVTHQGLSSPVTKSFNRGEC
EC50 [2]: 0.8 nM and 1.26 nM
